Laboratory results taken from US20120177636A1.
One block for each substance: values may come before it.

Assays:
[1] = target: CA215 on NaIO4-treated OC-3-VGH cancer cells (human); test: direct binding EIA on OC-3-VGH cell-coated wells, with NaIO4 treatment
[2] = target: CA215 (human); test: direct binding EIA on OC-3-VGH cell-coated wells, without NaIO4 treatment
[3] = target: CA215 (human); test: sandwich EIA: antibody coated at 5 µg/ml, OC-3-VGH shed medium, HRP-labeled RP215 as detector; no human IgG
[4] = target: CA215 (human); test: sandwich EIA: antibody coated at 5 µg/ml, OC-3-VGH shed medium, HRP-labeled RP215 as detector; with 10 µg/ml human IgG
[5] = target: CA215 (human); test: two-step ELISA on OC-3-VGH cancer cells, goat anti-mouse IgG-ALP; OD over that of normal mouse IgG at the same concentration
[6] = target: CA215 (human); test: sandwich EIA: antibody coated at 5 µg/ml, OC-3-VGH shed medium, HRP-labeled RP215 as detector; no human IgG; relative to RP215
[7] = target: CA215 (human); test: sandwich EIA: antibody coated at 5 µg/ml, OC-3-VGH shed medium, HRP-labeled RP215 as detector; with 10 µg/ml human IgG; relative to RP215
[8] = target: RP215 monoclonal antibody; test: ELISA, RP215 coated in wells, goat antibody as detector; row normalised to RP215
Chain of RP215 monoclonal antibody (VH, as listed by the source, chain 1 of 2): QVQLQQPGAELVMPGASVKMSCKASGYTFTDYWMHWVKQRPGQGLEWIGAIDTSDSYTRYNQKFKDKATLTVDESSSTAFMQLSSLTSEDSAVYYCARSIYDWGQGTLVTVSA
Chain of RP215 monoclonal antibody (VL, as listed by the source, chain 2 of 2): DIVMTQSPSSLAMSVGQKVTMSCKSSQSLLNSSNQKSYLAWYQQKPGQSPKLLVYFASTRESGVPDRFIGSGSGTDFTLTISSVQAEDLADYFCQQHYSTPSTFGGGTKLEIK

[9] = target: humanized RP215; test: ELISA, hRP215 coated in wells, goat antibody as detector; row normalised to RP215
[10] = target: chimeric RP215 mAb; test: ELISA, chRP215 coated in wells, goat antibody as detector; row normalised to RP215
Chain of chimeric RP215 mAb (VH, as listed by the source, chain 1 of 2): as the sequence (VH, as listed by the source, chain 1 of 2) above
Chain of chimeric RP215 mAb (VL, as listed by the source, chain 2 of 2): as the sequence (VL, as listed by the source, chain 2 of 2) above

[11] = target: human IgG (human); test: ELISA, human IgG coated in wells, goat antibody as detector; row normalised to RP215

Optical Density at 450 nm [1]: 0.797 | percent maximum binding [1]: 37% | Optical Density at 450 nm [2]: 2.15 | percent maximum binding [2]: 100% | Relative Signal Intensity in Sandwich EIA [3]: 100% | Relative Signal Intensity in Sandwich EIA [4]: 100% | ODs405/ODn405 [5]: 11.6
Substance: RP215 monoclonal antibody

Relative Signal Intensity in Sandwich EIA [6]: 14.5% | Relative Signal Intensity in Sandwich EIA [7]: 15.4%
Substance: chimeric RP215 mAb (antibody)

Relative Intensity [8]: 100% | Relative Intensity [9]: 5% | Relative Intensity [10]: 7% | Relative Intensity [11]: 3%
Substance: goat anti-mouse IgG (antibody)
